# Test results published in patent US20240060050A1, “CANINE HEPATIC ORGANOIDS” (Iowa State University Research Foundation, Inc., priority 2021, published 2024).
# System: ABCB1 (MDR1) gene, exon 4
# Assay: CRISPR/Cas9 HDR template insertion (ABCB1-1Δ knock-in) in liver organoids, amplicon sequencing
# Format: cell-based, canine
# Source text: The HDR template was a Megamer single-stranded DNA (ssDNA) fragment ordered from IDT. It was designed with 35 bp homology arms with a total length of the ssDNA being 337 bp. The HDR template used the exact sequence as the canine organoids were derived from, with the only difference being the 4 bp deletion [ATAG] near the middle of the strand. Both the positive and negative strand were reconstituted separately to determine which incorporation was most efficient.
# Approximately 500,000 cells were pooled for each electroporation cuvette. Media was removed from the wells, and organoids were resuspended in 500 μL Advanced DMEM/F12 (Gibco; Ref 12634-010). Organoids were centrifuged at 700 g at 4° C. for 5 min to form a pellet. Media was removed down to 500 μL, and the pellet was resuspended with 500 μL of TrypLETM Express (Gibco, Ref 12604-021) and pipette mixed approximately 15 times to assist in dissociation. Organoids were immediately placed in the hot water bath for 10 minutes at 37° C. and halfway through they were briefly (1 s) vortexed twice. After incubation, the sample was pipette mixed (5 times) and 10 μL of the sample was taken to determine cell concentration and check for successful dissociation. As described in Merenda et al. 2017, clusters of 10-15 cells increased survival post electroporation compared to a single cell suspension (Merenda et al., 2017). Immediately 6 mL of Advanced DMEM/F12 was added to stop the chemical dissociation. Again, organoids were centrifuged at 700 g at 4° C. for 5 min to form a pellet and the supernatant was removed.
# During dissociation, the ribonucleoprotein (RNP) was prepared. 150 pmol of crRNA (IDT) and 150 pmol of tracrRNA (IDT) were mixed and heated for 5 min at 95° C. in a thermocycler. Next, the mixture was removed from the heat and allowed to cool to room temperature for ˜10 minutes. Then, 300 pmol of Cas9 Nuclease V3 (IDT) was added and incubated for 10 min at room temperature (RT).
# The organoid pellet was resuspended in 90 μL of BTXpress electroporation solution (BTX; Ref 45-0801). […] The solution was added to a chilled cuvette and after the addition of the solution, the cuvette was checked for bubbles, the outside was wiped dry, and placed in a NEPA21 electroporator (Nepagene). The electroporation details can be seen in Table 6. A control GFP plasmid was electroporated separately to help determine the efficiency of electroporation. It is common to add a buffer or media solution to assist in cell recovery after electroporation. Immediately following electroporation, 400 μL of room temperature CMGF+ R/G organoid media as previously described was added to the cuvette, and the organoids were transferred to a 1.5 mL tube. The cell mixture was incubated for 30 min at RT then centrifuged at 700 g for 5 min to form a pellet. […]
# [1] = cold shock: 30° C. for 48 hours after electroporation
# [2] = incubation at 37° C. after electroporation
Molecule,estimated efficiency of correct HDR template insertion [1],estimated efficiency of correct HDR template insertion [2]
"Anti Hot: 337 bp ssDNA HDR template, antisense strand, with 4 bp [ATAG] deletion, electroporated with Cas9 RNP (nucleic acid) antisense: CAAAGCGATAAGTTTAACCGAACTATCCAACATATACAACCACCCCTGTTACCGACGGTAGTAGGTACCTCGACGTGAGGGAGAGTACTACGACCAAAAACCTTTGTACTGTCGAAACGTTTACGTCCTTAAAGTTCTTTGTTTTGAAAAGGTCAATATTAATTACTTTCATTCATAATAAACACCGTGACTAGAATCTCCAAACTTCTTTTTAGACAATGAATCTTCCTACAAATCGGGAGTAATTTATGTAATCACACAAATAAAGACCCCCTTTTCCCTCCTCAGACTCGATGTCAATTATAACCATTATTCAAACTCTTCTATTATTAGTATT",0%,~0.00303%
"Sense Hot: 337 bp ssDNA HDR template, sense strand, with 4 bp [ATAG] deletion, electroporated with Cas9 RNP (nucleic acid) sense: GTTTCGCTATTCAAATTGGCTTGATAGGTTGTATATGTTGGTGGGGACAATGGCTGCCATCATCCATGGAGCTGCACTCCCTCTCATGATGCTGGTTTTTGGAAACATGACAGCTTTGCAAATGCAGGAATTTCAAGAAACAAAACTTTTCCAGTTATAATTAATGAAAGTAAGTATTATTTGTGGCACTGATCTTAGAGGTTTGAAGAAAAATCTGTTACTTAGAAGGATGTTTAGCCCTCATTAAATACATTAGTGTGTTTATTTCTGGGGGAAAAGGGAGGAGTCTGAGCTACAGTTAATATTGGTAATAAGTTTGAGAAGATAATAATCATAA",~0.0705%,~0.0348%
